Test results reported in US12065471B2, “B*44 restricted peptides for use in immunotherapy against cancers and related methods” (Immatics Biotechnologies GmbH, priority 2018, dated 2024).

Molecular target: HLA-B*44:05 (Homo sapiens, UniProt P01889, A223V/A65T/A93T/A95T/D201E/D98Y/E176V/E187L/E204Q/E69K/G107R/H137Y/K202T/L105A/L119I/N104T/N87E/Q56L/Q94N/R106L/R155S/R180D/S101N/S121R/S35A/S48T/T118I/V36M/W191S/Y91S)
Test: MHC binding assay (UV-ligand exchange, β2m ELISA, peptide exchange yield)
Conditions: binding to HLA-B*44:05
Source text: Candidate peptides for T cell-based therapies according to the present invention were further tested for their MHC binding capacity (affinity). The individual peptide-MHC complexes were produced by UV-ligand exchange, where a UV-sensitive peptide is cleaved upon UV-irradiation and exchanged with the peptide of interest as analyzed. Only peptide candidates that can effectively bind and stabilize the peptide-receptive MHC molecules prevent dissociation of the MHC complexes. To determine the yield of the exchange reaction, an ELISA was performed based on the detection of the light chain (β2m) of stabilized MHC complexes. The assay was performed as generally described in Rodenko et al. (Rodenko et al., 2006)
96 well MAXISorp plates (NUNC) were coated over night with 2 μg/ml streptavidin in PBS at room temperature, washed 4× and blocked for 1 h at 37° C. in 2% BSA containing blocking buffer. Refolded HLA-A*02:01/MLA-001 monomers served as standards, covering the range of 15-500 ng/ml. Peptide-MHC monomers of the UV-exchange reaction were diluted 100-fold in blocking buffer. Samples were incubated for 1h at 37° C., washed four times, incubated with 2 μg/ml HRP conjugated anti-β2m for 1h at 37° C., washed again and detected with TMB solution that is stopped with […]. Absorption was measured at 450 nm.

Row | Substance | Peptide exchange (MHC class I binding score, peptide exchange yield)
1 | 192 (LEIMTNLVTL; listed as Homo sapiens) [compound 192] | ++++ (>75% = ++++)
2 | 194 (TEGDVLNYIF; listed as Homo sapiens) [compound 194] | +++ (>50 = +++)
3 | 198 (REEEANVVL; listed as Homo sapiens) [compound 198] | +++ (>50 = +++)
4 | 200 (KELSVFKKF; listed as Homo sapiens) [compound 200] | +++ (>50 = +++)
5 | 201 (MEILWKTLT; listed as Homo sapiens) [compound 201] | ++++ (>75% = ++++)
6 | 205 (MEIEGAGNFL; listed as Homo sapiens) [compound 205] | ++++ (>75% = ++++)
7 | 207 (LEGGGRGGEF; listed as Homo sapiens) [compound 207] | ++ (>20% = ++)
8 | 209 (AEGEPPPAL; listed as Homo sapiens) [compound 209] | +++ (>50 = +++)
9 | 210 (AEGEPPPALAW; listed as Homo sapiens) [compound 210] | +++ (>50 = +++)
10 | 212 (SEASVYLFRF; listed as Homo sapiens) [compound 212] | +++ (>50 = +++)
11 | 216 (AGSPVMRKW; listed as Homo sapiens) [compound 216] | ++ (>20% = ++)
12 | 220 (EEEVFSGMKL; listed as Homo sapiens) [compound 220] | ++++ (>75% = ++++)

Now from value to substance:

Row | Peptide exchange (MHC class I binding score, peptide exchange yield) | Substance
13 | +++ (>50 = +++) | 193 (RELRPLFDRQW; listed as Homo sapiens) [compound 193]
14 | +++ (>50 = +++) | 195 (MEIKGTVTEF; listed as Homo sapiens) [compound 195]
15 | ++++ (>75% = ++++) | 196 (TELEVKIRDW; listed as Homo sapiens) [compound 196]
16 | ++ (>20% = ++) | 197 (NEILTIHF; listed as Homo sapiens) [compound 197]
17 | +++ (>50 = +++) | 199 (AELPENLKALF; listed as Homo sapiens) [compound 199]
18 | ++ (>20% = ++) | 202 (RELPLVLLA; listed as Homo sapiens) [compound 202]
19 | +++ (>50 = +++) | 203 (REILHAQTL; listed as Homo sapiens) [compound 203]
20 | +++ (>50 = +++) | 204 (YERPTLVEL; listed as Homo sapiens) [compound 204]
21 | +++ (>50 = +++) | 206 (SEDPEKYYL; listed as Homo sapiens) [compound 206]
22 | ++ (>20% = ++) | 208 (SEFLLRIF; listed as Homo sapiens) [compound 208]
23 | +++ (>50 = +++) | 211 (LEMLDAHRL; listed as Homo sapiens) [compound 211]
24 | ++ (>20% = ++) | 213 (DEDLFHKL; listed as Homo sapiens) [compound 213]
25 | ++ (>20% = ++) | 214 (SVNPIIYGF; listed as Homo sapiens) [compound 214]
26 | ++ (>20% = ++) | 217 (EVEVGDRTDW; listed as Homo sapiens) [compound 217]
27 | +++ (>50 = +++) | 218 (REAEEKEAQL; listed as Homo sapiens) [compound 218]
28 | +++ (>50 = +++) | 219 (WEVEVGDRTDW; listed as Homo sapiens) [compound 219]
